Molecular target: recombinant N-terminal His6-tagged GlgB (Synechocystis sp. PCC 6803) (UniProt P52981)
Test: MST

Sequence of recombinant N-terminal His6-tagged GlgB (Synechocystis sp. PCC 6803) (P52981 whole entry): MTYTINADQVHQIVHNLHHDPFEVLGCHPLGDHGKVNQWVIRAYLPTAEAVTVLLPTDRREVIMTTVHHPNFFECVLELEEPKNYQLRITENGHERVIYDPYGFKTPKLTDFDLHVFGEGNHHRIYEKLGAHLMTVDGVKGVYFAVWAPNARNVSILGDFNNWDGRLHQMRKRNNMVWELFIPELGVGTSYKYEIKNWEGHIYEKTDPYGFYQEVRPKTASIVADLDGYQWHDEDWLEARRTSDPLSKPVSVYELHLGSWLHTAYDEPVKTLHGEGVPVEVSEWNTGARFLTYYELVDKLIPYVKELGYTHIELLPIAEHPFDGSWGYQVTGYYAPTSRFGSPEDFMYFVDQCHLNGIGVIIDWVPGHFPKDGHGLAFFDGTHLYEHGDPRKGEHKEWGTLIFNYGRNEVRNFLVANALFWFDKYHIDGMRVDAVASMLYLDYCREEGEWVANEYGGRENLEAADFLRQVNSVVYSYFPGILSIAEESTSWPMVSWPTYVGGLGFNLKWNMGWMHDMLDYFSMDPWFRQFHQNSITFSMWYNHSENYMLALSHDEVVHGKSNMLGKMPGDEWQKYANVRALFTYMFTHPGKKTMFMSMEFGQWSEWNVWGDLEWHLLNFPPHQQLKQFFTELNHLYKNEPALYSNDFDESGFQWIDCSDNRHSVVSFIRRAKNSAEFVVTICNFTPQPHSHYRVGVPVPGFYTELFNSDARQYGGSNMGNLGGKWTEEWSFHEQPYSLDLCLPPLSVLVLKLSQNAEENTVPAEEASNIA

recombinant C-terminal StrepII-tagged ScSbtB (SbtB from Synechocystis sp. PCC 6803) (from UniProt P73954 1-110) (natural protein)
Kd: 220 nM
